# Data as given in PMC5587775 (Nucleic Acids Research, 2017).
# T1: recombinant MyoD protein (UniProt P10085 1-318)
# T1 sequence (looked up): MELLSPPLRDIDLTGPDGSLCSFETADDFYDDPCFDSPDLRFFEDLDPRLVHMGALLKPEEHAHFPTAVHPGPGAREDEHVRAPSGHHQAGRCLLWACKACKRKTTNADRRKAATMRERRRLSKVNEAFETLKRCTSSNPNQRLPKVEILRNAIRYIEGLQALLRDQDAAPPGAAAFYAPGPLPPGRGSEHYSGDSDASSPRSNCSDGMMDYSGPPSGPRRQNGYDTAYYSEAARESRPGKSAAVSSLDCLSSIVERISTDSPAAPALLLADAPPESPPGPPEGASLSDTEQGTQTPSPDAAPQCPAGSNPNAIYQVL
# Biological target: T1, recombinant MyoD protein
# Assay: pull-down
binder,measurement,value
"FoxO3 (natural protein, mouse (endogenous in C2C12), UniProt Q9WVH4 1-672, looked up) MAEAPASPVPLSPLEVELDPEFEPQSRPRSCTWPLQRPELQASPAKPSGETAADSMIPEEDDDEDDEDGGGRASSAMVIGGGVSSTLGSGLLLEDSAMLLAPGGQDLGSGPASAAGALSGGTPTQLQPQQPLPQPQPGAAGGSGQPRKCSSRRNAWGNLSYADLITRAIESSPDKRLTLSQIYEWMVRCVPYFKDKGDSNSSAGWKNSIRHNLSLHSRFMRVQNEGTGKSSWWIINPDGGKSGKAPRRRAVSMDNSNKYTKSRGRAAKKKAALQAAPESADDSPSQLSKWPGSPTSRSSDELDAWTDFRSRTNSNASTVSGRLSPILASTELDDVQDDDGPLSPMLYSSSASLSPSVSKPCTVELPRLTDMAGTMNLNDGLAENLMDDLLDNIALPPSQPSPPGGLMQRGSSFPYTAKSSGLGSPTGSFNSTVFGPSSLNSLRQSPMQTIQENRPATFSSVSHYGNQTLQDLLASDSLSHSDVMMTQSDPLMSQASTAVSAQNARRNVMLRNDPMMSFAAQPTQGSLVNQNLLHHQHQTQGALGGSRALSNSVSNMGLSDSSSLGSAKHQQQSPASQSMQTLSDSLSGSSLYSASANLPVMGHDKFPSDLDLDMFNGSLECDMESIIRSELMDADGLDFNFDSLISTQNVVGLNVGNFTGAKQASSQSWVPG",fold retrieval with E-box motif DNA against without,1.6 fold
